{"source": "paper PMC8709873", "molecular_target": "myc-tagged LRRTM2 (UniProt O43300)", "sequence (O43300 34-516)": "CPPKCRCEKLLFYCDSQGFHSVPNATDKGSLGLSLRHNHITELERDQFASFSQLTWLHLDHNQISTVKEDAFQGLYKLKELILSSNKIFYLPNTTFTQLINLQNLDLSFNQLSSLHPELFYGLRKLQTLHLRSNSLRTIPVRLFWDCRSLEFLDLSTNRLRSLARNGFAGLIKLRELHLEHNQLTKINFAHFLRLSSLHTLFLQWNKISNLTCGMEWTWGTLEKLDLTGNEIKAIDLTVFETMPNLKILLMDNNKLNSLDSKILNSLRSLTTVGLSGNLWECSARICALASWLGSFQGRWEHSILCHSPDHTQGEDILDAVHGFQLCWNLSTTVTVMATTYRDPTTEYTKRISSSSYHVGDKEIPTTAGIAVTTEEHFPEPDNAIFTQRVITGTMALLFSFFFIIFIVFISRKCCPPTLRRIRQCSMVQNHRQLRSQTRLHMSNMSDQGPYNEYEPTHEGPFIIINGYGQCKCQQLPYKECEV", "assay": "immunostaining of cells or tissue; concentrated conditioned media with Fc proteins (~1 μg/ml) added to CHO cells expressing myc-LRRTM + GFP, on ice 30 min, washed, fixed; Fc detected with Cy3 anti-human IgG, ratio Fc MGV/LRRTM MGV, normalized to control-Fc", "data": [{"substance": "P469S HA-Nrxn1α-ecto-Fc (Fc fusion)", "values": [{"measurement": "fold increase in binding against WT", "result": 2, "unit": "fold"}]}]}
